# Experimental data as given in article PMC2779590.
# Target: stable 100 kDa N-terminal fragment of CagA (Helicobacter pylori (strain not stated)) (UniProt P55980)
# Assay: SPR
# stable 100 kDa N-terminal fragment of CagA (Helicobacter pylori (strain not stated)), sequence (P55980 1-885 limits assumed): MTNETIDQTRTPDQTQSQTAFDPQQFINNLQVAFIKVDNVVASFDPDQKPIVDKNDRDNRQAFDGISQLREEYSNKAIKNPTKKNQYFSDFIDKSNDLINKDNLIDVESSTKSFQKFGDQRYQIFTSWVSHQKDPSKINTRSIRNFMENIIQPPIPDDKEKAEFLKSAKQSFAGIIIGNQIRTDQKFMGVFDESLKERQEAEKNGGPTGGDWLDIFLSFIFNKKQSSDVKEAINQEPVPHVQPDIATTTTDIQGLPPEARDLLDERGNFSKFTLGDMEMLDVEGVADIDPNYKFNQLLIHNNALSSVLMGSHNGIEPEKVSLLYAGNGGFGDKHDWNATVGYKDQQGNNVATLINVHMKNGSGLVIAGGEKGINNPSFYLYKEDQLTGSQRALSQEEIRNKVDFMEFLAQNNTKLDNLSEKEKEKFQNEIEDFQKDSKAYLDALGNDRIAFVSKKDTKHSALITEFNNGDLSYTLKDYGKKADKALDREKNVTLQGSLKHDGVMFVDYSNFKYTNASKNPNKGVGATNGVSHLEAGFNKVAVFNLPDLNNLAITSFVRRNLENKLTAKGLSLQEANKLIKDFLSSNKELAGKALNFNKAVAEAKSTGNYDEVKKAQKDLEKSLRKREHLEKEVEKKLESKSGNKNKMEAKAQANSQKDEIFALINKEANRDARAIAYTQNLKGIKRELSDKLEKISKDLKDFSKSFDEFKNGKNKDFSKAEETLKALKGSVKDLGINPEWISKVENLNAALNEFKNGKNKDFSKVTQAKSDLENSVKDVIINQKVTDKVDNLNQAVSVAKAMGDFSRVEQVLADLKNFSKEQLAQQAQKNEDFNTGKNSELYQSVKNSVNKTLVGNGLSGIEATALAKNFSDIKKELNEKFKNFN
row,Substance,Kd [nM]
1,purified human αVβ3 integrin (from placenta) (from UniProt P05106 27-788) (complex),33.4
2,purified human α5β1 integrin (from placenta) (from UniProt P05556 21-798) (complex),0.153
